From publication PMC10858199, “Amyloid-β aggregates activate peripheral monocytes in mild cognitive impairment” (Nature Communications, 2024)

Columns and labels:
[1] = target: synthetic, predominantly monomeric amyloid-β (M-Aβ) (human) (UniProt P05067); experiment: SPR; BIAcore 3000, CM-4 chips; monomeric Aβ, aggregated Aβ (100 fmol Aβ42/mm^2) or iC3b amine-coupled; I domains injected at 20-10000 nM in 150 mM NaCl, 1 mM MgCl2, 5.0 mM HEPES (pH 7.4); contact 180 s, dissociation 400 s; two-dimensional distribution of 1:1 interactions fitted with EVILFIT
[2] = target: in vitro-aggregated amyloid-β (A-Aβ) (human) (UniProt P05067); experiment: as above

Kd [1] [µM]	KD, high-affinity class of binding sites [2] [pM]	koff, high-affinity class of binding sites [2] [s⁻¹]	koff, moderate-affinity class of binding sites [2] [s⁻¹]	Substance
79				CR3 I domain, stabilized in the activated conformation (domain or fragment)
	16	0.00025	5e-05	CR4 I domain, stabilized in the activated conformation (from UniProt P20702 20-1101) (domain or fragment)
